# Test results published in patent US20230052369A1 (Zymeworks, published 2023).
# T1: Cyno 4-1BB-Flag, on HEK293-6e cells (Cynomolgus (Macaca fascicularis))
# T1 construct: also called Cynomolgus 4-1BB; CL#11070
# T1 chain: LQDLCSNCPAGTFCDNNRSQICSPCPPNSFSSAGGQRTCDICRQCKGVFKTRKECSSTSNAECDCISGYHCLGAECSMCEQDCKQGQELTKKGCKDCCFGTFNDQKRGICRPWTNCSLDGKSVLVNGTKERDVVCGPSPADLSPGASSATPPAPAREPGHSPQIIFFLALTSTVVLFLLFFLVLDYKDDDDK
# How the values were obtained:
# [1] = biological target: T2, truncated human 4-1BB domain 3 and 4 only construct (residues 86-255), on cells (human, UniProt Q07011 86-255); assay: flow cytometry, transfected 293E6 cells
# T2 construct: on 293E6 cells co-transfected with mouse 4-1BB; also called 4-1BB domain 3 and 4 only construct (amino acids 86-255)
# T2 sequence (Q07011 86-255): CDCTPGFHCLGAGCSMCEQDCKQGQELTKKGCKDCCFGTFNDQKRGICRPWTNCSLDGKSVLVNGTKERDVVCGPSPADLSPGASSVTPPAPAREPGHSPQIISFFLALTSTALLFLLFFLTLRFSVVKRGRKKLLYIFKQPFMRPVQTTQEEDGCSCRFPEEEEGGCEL
# [2] = biological target: T3, human 4-1BB, full-length, expressed on cells (human, UniProt Q07011 24-255); assay: flow cytometry, transfected 293E6 cells
# T3 construct: also called CD137; TNFRSF9
# T3 sequence (Q07011 24-255): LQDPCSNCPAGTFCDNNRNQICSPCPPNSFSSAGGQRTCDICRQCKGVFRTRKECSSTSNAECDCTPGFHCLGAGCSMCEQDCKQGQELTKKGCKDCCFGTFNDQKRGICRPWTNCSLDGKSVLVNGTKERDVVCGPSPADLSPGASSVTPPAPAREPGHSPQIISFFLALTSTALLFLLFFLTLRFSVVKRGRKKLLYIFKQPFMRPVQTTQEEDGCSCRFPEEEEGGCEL
# [3] = biological target: T1, Cyno 4-1BB-Flag, on HEK293-6e cells; assay: CellInsight cell binding, transfected HEK293-6e
# [4] = biological target: T4, Mouse 4-1BB-Flag, on HEK293-6e cells (Mouse (Mus musculus), UniProt P20334 24-208); assay: CellInsight cell binding, transfected HEK293-6e
# T4 construct: also called CL#11063
# T4 sequence (P20334 other isoform, or with tags, fused parts or gaps limits assumed): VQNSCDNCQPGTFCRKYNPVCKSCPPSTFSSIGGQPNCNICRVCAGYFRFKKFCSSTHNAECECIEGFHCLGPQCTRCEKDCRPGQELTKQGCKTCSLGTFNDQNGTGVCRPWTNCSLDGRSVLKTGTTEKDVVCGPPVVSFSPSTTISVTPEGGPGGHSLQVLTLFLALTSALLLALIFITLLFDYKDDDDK
# [5] = biological target: T5, 4-1BB dog (dog 4-1BB ECD-TEV-IgG1 Fc-10x His) (dog); assay: ELISA, coated 4-1BB-Fc
# T5 construct: Uniprot E2R1R9 residues 24-186 fused to TEV site, IgG1 Fc and His tag
# T5 sequence (chain, as listed by the source limits assumed): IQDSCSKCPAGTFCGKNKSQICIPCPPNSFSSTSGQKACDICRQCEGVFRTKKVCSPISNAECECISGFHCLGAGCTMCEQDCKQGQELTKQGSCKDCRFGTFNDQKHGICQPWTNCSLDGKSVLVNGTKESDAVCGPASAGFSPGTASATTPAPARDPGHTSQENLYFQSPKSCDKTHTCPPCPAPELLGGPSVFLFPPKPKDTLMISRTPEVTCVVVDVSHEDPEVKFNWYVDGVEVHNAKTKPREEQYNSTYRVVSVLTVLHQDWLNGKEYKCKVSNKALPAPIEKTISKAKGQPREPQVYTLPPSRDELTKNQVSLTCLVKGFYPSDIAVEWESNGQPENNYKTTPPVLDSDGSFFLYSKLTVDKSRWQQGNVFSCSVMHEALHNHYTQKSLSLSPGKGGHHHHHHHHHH
# [6] = biological target: T6, 4-1BB human (human 4-1BB ECD-TEV-IgG1 hinge-CH2-CH3-10x His) (human); assay: ELISA, coated 4-1BB-Fc
# T6 construct: 4-1BB residues 24-186 fused to TEV site, IgG1 Fc and His tag; the entry is the whole fusion; also called soluble human 4-1BB-Fc
# T6 sequence (chain, as listed by the source limits assumed): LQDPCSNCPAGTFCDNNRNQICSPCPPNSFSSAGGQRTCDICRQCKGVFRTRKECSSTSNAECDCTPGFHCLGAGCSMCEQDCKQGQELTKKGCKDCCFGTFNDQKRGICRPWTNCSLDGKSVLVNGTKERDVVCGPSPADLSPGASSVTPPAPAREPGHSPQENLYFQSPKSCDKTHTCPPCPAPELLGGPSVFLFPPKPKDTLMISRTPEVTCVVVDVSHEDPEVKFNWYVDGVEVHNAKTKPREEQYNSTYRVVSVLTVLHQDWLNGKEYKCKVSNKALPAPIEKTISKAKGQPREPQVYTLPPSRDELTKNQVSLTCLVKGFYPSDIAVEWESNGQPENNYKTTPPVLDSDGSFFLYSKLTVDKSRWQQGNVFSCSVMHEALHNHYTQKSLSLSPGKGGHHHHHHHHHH
# [7] = biological target: T7, 4-1BB dog-human (human-dog chimeric 4-1BB ECD-TEV-IgG1 Fc-10x His) (human with dog residues in domain 4); assay: ELISA, coated 4-1BB-Fc
# T7 construct: Human 4-1BB ECD with K115Q, C121R, R134Q, R154S and V156A (already in the entry); also called dog-human chimeric 4-1BB; hybrid 4-1BB
# T7 sequence (chain, as listed by the source mutant limits assumed): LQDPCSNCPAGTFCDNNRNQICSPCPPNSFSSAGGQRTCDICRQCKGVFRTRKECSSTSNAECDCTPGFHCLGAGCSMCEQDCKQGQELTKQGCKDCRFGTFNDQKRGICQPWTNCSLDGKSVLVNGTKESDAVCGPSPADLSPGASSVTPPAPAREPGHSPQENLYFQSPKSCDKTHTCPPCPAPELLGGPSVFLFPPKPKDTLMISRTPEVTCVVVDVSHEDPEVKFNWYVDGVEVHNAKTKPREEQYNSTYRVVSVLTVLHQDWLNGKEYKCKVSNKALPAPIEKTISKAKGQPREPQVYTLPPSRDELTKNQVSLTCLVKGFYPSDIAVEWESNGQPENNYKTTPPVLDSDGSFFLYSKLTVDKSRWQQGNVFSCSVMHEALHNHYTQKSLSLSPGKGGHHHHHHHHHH
# [8] = biological target: T8, purified human monomeric 4-1BB (human, UniProt Q07011 24-186); assay: SPR, mean n=3;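 further: antibodies captured on anti-human Fc chip, 4-1BB injected as five-point two-fold series from 40 nM by single-cycle kinetics at 25 °C, sensorgrams fitted to 1:1 Langmuir model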
# T8 construct: the assay used the 4-1BB part released by Factor Xa with the Fc removed; also called h4-1BB; human 4-1BB
# T8 sequence (Q07011 other isoform, or with tags, fused parts or gaps limits assumed): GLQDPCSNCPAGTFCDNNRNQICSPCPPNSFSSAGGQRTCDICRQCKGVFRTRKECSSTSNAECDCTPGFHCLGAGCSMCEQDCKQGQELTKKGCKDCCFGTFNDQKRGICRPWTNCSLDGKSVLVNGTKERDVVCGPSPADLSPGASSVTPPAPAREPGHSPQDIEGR
# [9] = biological target: T3, human 4-1BB, full-length, expressed on …; assay: flow cytometry, Jurkat-4-1BB
binder,measurement,setting,value
"v20029 (antibody, human IgG1, kappa, L234A L235A, V domains shown, Mouse-human chimera; also called 3E7) VH: QVQLQESGGGLVKPGGSRKLSCAASGFTFSEFGMHWVRQAPDKGLEWVAYISSGSSTIYYADTVKGRFTISRDNAKNTLFLQMTSLRSEDTAMYYCARDWVDYWGQGTALTVSS VL: NIVMTQSPKSMSMSVGERVTLSCKASENVGSYVSWYQQKPEKSPKLLIYGASNRYTGVPDRFTGSGSATDFTLTISSVQAEDLADYHCGQSYSYPLTFGAGTKLELKR",binding result,[1],no binding (tested: 2.5 µg of antibody)
same,binding result,[2],binds
same,binding result,[3],binds
same,binding result,[4],no binding
same,binding result,[5],binds
same,binding result,[6],binds
"v20025 (antibody, human IgG1, kappa, L234A L235A, V domains shown, Mouse-human chimera; also called 2E8) VH: QVQLKQSGPGLVQPSQSLSITCTVSGFSLTSYGVHWVRQSPGKGLEWLGVIWSGGSTDYNAAFISRLSISKDNSKSQVFFKMNSLQADDTAIYYCARNPLTATVMDYWGQGTSVTVSS VL: DIVMTQSQKFMSTSVGDRVSVTCKASQNVGTNVAWYQQKPGQSRTVLIYSASYRHSGVPDRFTGSGSGTDFTLTISNVQSEDLAEYFCQQYNSYPLTFGTGTKLELKR",binding result,[1],no binding (tested: 2.5 µg of antibody)
same,binding result,[2],binds
same,binding result,[3],binds
same,binding result,[4],no binding
same,binding result,[7],binds
same,binding result,[5],no binding
same,binding result,[6],binds
"v20037 (antibody, human IgG1, kappa, L234A L235A, V domains shown, Mouse-human chimera; also called 6B3) VH: QVQLKESGPGLVAPSQSLSITCTVSGFSLTSYAISWVRQPPGKGLEWLGVIWPGGGTNYNSALKSRLSISKDNSKSQVFLKMNSLQTDDTARYYCARGTGTWYFDVWGAGTTVTVSS VL: DIQMTQTTSSLSASLGDRVTISCSASQGISNYLNWYQQKPDGTVKLLIYYTSSLHSGVPSRFSGSGSGTDYSLTISNLEPEDIATYYCQQYSDLPWTFGGGTKLEIKR",binding result,[1],no binding (tested: 2.5 µg of antibody)
same,binding result,[2],binds
same,binding result,[4],no binding
same,binding result,[7],binds
same,binding result,[5],no binding
same,binding result,[6],binds
"v20022 (antibody, human IgG1, kappa, L234A L235A, V domains shown, Mouse-human chimera; also called 1C8; 1C8 mouse-human parental chimera) VH: QVQLKESGPGLVAPSQSLSITCTVSGFSLTTYAISWVRQPPGKGLEWLGIIWPGGGTNYNSALKSRLSISKDNSRSQVFLKMNSLQTDDTARYYCARGAGTWYFDVWGAGTTVTVSS VL: DIQMTQSTSSLSASVGDRVTISCSASQGISNYLNWYQQKPDGTVKLLIYYTSSLHSGVPSRFSGSGSGTDYSLTISNLEPEDIATYYCQQYSKFPWTFGGGTKLEIKR",binding result,[1],no binding (tested: 2.5 µg of antibody)
same,Kd,[8],582 nM
same,binding result,[3],binds
same,binding result,[4],no binding
same,binding result,[7],binds
same,binding result,[5],no binding
same,binding result,[6],binds
same,EC50,[9],17.3 nM
"v20032 (antibody, human IgG1, kappa, L234A L235A, V domains shown, Mouse-human chimera; also called 4E6) VH: QVQLKESGPGLVAPSQSLSITCTVSGFSLTSYAINWVRQPPGKGLEWLGVLWPGGGTNYNSALKSRLSISKDNSKSQVFLKMNSLQTDDTARYYCARGSGTWYFDVWGAGTTVTVSS VL: DIQMTQTTSSLSASLGDRVTFSCSASQGISNYLNWYQQKPDGTVKLLIYYTSSLHLGVPSRFSGSGSGTDYSLTISNLEPEDIATYYCQQYSKLPWTFGGGTKLEIKR",binding result,[1],no binding (tested: 2.5 µg of antibody)
same,binding result,[2],binds
same,binding result,[4],no binding
same,binding result,[7],binds
same,binding result,[5],no binding
same,binding result,[6],binds
